# Measured values from the supplement of paper PMC6379048.
# What was measured:
# Assay in all cases: EC50 of free RNA motif oligo competing protein binding to immobilised probe
# HNRNPK = HNRNPK (UniProt P61978)
# In short: (§1)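 Free RNA oligos (0 nM to 30 μM) were pre-incubated with HEK293-FT lysate (2.5 mg protein/well) for 1 h at 4°C, followed by 30 min at 4°C with the same 5′-amino-C6 oligos coupled to NHS-Sepharose beads. Bound proteins were quantified by label-free LC-MS/MS and normalised to the control. EC50 was derived from a four-parameter log-logistic fit, and Kd was obtained by multiplying EC50 by a protein-dependent depletion factor.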
# PCBP1 = PCBP1 (UniProt Q15365)
# PCBP1, sequence (Q15365 whole entry): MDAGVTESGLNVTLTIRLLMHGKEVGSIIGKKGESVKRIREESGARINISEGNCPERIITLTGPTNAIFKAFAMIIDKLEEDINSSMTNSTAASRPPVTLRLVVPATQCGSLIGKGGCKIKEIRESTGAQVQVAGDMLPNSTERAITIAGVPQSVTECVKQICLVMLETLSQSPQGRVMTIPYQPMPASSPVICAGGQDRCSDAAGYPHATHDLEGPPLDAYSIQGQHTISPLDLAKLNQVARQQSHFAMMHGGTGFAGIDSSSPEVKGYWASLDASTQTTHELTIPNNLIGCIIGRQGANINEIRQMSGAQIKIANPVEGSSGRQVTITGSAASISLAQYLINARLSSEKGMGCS
# In short: as §1
# NONO = target: T1, NONO (UniProt Q15233)
# T1 sequence: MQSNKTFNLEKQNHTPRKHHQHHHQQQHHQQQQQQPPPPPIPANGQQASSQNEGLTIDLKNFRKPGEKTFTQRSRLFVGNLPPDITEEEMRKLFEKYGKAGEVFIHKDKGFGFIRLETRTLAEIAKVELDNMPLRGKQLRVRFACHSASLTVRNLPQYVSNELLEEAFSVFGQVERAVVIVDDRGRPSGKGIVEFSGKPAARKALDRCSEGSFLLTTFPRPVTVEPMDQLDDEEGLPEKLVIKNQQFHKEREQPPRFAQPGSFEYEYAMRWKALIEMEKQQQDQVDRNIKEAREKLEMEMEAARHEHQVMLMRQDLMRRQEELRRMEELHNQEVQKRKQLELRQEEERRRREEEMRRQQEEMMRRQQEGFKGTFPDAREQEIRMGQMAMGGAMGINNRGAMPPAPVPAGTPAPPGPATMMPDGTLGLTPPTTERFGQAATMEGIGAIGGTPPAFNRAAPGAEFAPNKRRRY
# In short: as §1
# PRPF3 = target: T2, PRPF3 (UniProt O43395)
# T2 sequence: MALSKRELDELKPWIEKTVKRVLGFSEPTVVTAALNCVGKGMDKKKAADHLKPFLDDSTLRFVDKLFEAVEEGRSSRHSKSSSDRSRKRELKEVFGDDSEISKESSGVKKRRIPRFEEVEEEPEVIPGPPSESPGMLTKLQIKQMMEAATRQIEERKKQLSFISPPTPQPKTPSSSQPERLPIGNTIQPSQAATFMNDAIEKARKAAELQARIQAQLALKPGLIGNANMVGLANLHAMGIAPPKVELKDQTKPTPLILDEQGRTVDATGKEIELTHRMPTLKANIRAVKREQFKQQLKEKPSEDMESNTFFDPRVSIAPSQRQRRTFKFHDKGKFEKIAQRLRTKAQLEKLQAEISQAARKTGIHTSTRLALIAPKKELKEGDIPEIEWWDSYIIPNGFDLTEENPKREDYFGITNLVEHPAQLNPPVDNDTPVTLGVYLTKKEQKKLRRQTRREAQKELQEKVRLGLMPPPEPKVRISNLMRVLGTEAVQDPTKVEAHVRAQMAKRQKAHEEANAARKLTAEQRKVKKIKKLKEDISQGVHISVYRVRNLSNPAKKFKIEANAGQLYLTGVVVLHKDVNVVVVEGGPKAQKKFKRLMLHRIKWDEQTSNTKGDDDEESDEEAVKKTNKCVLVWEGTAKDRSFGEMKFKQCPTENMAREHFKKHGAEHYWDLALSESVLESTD
# In short: as §1
# PRPF4 = target: T3, PRPF4 (UniProt O43172)
# T3 sequence: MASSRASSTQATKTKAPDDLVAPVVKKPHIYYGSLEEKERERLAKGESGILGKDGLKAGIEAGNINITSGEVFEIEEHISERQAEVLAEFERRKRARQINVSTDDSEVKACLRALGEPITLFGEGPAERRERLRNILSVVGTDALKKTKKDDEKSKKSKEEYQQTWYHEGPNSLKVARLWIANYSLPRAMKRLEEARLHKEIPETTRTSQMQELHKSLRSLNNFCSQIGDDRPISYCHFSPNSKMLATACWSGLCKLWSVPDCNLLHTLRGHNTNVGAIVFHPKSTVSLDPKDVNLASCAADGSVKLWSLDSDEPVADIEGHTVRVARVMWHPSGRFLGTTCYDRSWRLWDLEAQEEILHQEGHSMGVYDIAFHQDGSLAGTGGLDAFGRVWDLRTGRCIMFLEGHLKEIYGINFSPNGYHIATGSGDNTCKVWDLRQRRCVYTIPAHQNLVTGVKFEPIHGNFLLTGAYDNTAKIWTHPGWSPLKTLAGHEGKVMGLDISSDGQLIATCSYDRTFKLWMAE
# In short: as §1
# SKIV2L = SKIV2L (UniProt Q15477)
# SKIV2L, sequence (Q15477 whole entry): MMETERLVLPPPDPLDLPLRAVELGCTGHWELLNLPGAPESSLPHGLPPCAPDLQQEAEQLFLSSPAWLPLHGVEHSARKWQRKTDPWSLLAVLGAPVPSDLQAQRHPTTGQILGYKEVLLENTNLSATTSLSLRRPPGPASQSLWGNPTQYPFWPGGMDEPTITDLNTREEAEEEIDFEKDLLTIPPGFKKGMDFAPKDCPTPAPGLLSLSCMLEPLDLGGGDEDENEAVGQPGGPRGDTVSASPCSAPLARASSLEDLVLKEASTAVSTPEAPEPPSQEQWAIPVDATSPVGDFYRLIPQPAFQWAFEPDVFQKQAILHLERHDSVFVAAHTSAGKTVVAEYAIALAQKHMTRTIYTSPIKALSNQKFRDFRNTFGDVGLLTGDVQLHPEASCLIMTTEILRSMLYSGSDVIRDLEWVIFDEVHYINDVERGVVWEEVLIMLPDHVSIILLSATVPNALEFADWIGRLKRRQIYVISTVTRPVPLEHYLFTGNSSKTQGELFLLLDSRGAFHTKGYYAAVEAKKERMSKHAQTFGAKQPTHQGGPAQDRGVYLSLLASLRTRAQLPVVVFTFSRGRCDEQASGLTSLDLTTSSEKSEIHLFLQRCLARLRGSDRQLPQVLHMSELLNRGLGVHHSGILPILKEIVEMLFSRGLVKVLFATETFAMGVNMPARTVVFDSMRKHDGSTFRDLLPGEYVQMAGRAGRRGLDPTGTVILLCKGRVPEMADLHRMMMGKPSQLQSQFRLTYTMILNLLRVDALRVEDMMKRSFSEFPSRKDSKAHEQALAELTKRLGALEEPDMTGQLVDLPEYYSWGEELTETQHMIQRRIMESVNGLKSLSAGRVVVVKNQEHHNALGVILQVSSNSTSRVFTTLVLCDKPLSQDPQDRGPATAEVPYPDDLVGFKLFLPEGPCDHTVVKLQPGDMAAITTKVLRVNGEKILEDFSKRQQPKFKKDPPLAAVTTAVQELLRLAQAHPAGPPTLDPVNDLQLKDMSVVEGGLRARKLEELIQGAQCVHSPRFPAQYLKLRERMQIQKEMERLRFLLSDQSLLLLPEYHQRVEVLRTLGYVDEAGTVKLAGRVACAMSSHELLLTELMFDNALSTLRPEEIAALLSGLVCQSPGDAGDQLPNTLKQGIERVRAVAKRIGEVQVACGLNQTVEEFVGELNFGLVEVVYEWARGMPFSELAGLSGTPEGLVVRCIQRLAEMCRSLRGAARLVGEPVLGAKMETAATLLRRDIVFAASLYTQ
# In short: as §1
sequence,measurement,setting,value
CUGUCCU,EC50,HNRNPK,3.04 µM
same,EC50,PCBP1,3.36 µM
AAUAAA,EC50,NONO,0.000302 µM
UAUUUAU,EC50,PRPF3,7.13 µM
same,EC50,PRPF4,6.81 µM
same,EC50,SKIV2L,1.95 µM
